Test in all cases: purified protein, by the assay type
Common to all, as to details: other: pH 7.4, 20 μM (S)-adenosyl methionine

Substrate in series [1]: C[C@@H](N)Cc1c[nH]cn1
Substrate in series [2]: NCCc1c[nH]cn1
Substrate in series [3]: c1cc(Cc2cnc[nH]2)ccn1

The values that follow come from US20120129892A1, “NOVEL PHARMACEUTICALLY ACCEPTABLE SALTS OF 4-(1H-IMIDAZOL-4-[…])PYRIDINE AND THEIR THERAPEUTICAL USES” (BIOPROJET, priority 2009, published 2012).

Several values for one entry are separate records, joined by “and”; a condition that tells them apart may be missing. Equal values may be shown once.

B1: human HMT (Homo sapiens) (protein)
chain: MASSMRSLFSDHGKYVESFRRFLNHSTEHQCMQEFMDKKLPGIIGRIGDTKSEIKILSIGGGAGEIDLQILSKVQAQYPGVCINNEVVEPSAEQIAKYKELVAKTSNLENVKFAWHKETSSEYQSRMLEKKELQKWDFIHMIQMLYYVKDIPATLKFFHSLLGTNAKMLIIVVSGSSGWDKLWKKYGSRFPQDDLCQYITSDDLTQMLDNLGLKYECYDLLSTMDISDCFIDGNENGDLLWDFLTETCNFNATAPPDLRAELGKDLQEPEFSAKKEGKVLFNNTLSFIVIEA
With B1, in series [1], the Km (usually the substrate concentration at which the rate is half of its maximum) came out at 16.26 µM, the Vmax (usually the top rate of the reaction or transport when substrate is in excess) was found to be 0.56 µM/min and the Vmax/Km is 0.034 min⁻¹. Moreover, in series [2], the Km was 3.93 µM, the maximum rate (Vmax) stood at 0.19 µM/min and the Vmax/Km came to 0.048 min⁻¹. In series [3], the Vmax is 0.004 µM/min and 0.003 µM/min; the Vmax/Km was 0.0011 min⁻¹ and 0.0012 min⁻¹.
